First the molecules themselves.
B1: talin-R9 (domain or fragment, mouse, UniProt P26039 1654-1848, looked up)
chain: KAPGQLECETAIAALNSCLRDLDQASLAAVSQQLAPREGISQEALHTQMLTAVQEISHLIEPLASAARAEASQLGHKVSQMAQYFEPLTLAAVGAASKTLSHPQQMALLDQTKTLAESALQLLYTAKEAGGNPKQAAHTQEALEEAVQMMTEAVEDLTTTLNEAASAAGVVGGMVDSITQAINQLDEGPMGDPEG
B2: talin-F3 (His-tagged, pull-down) (domain or fragment, mouse, UniProt P26039 309-405, looked up)
chain: GVSFFLVKEKMKGKNKLVPRLLGITKECVMRVDEKTKEVIQEWSLTNIKRWAASPKSFTLDFGDYQDGYYSVQTTEGEQIAQLIAGYIDIILKKKKS

Assay [1] addresses T1, talin-F2F3 (mouse, UniProt P26039 206-405). Kind of assay: NMR titration.
In a further assay the target is talin-F3 (mouse, UniProt P26039 309-405). Kind of assay: NMR titration.
Assay [2] addresses B2. The experiment in a line: pull-down.
For assay [3], the target named is talin-R9 (pull-down competitor) (mouse, UniProt P26039 1654-1848). The experiment in a line: pull-down.
Assay [4] has as its target T1, talin-F2F3. Kind of assay: NMR titration. This is another data set of the same source.

Where two headings read alike, the source gives them in different places. Ends that are not written are not given here.

Take B1: the binding result with talin-F2F3 [1] was “binds”.
Turning to KKKITIHDRKEFAKFEEERARAKWDTANNPLYKEATSTFTNITYRGT (peptide, UniProt P05106 742-788, looked up) [integrin β3 CT (716–762) L717K/L718K], in the assay with talin-F3, the binding result was “binds”.
As for KKKITIHDRKEFAKFEEERARAKWDTANNPLYKEATSTFTNITYRGT (peptide, UniProt P05106 742-788, looked up, also: His-tagged) [integrin β3 CT (716–762) L717K/L718K (His-tagged, pull-down)], the binding result in assay [2] was “binds”.
B2: in assay [3], the binding result is “binds”.
Consider DIDQMFSTLLGEMDLLTQSLGVDT (peptide, UniProt Q7Z5R6 7-30, looked up) [RIAM-N], for which the binding result with talin-F2F3 [4] and with talin-F3 was “binds” each time.

(Values after PMC4432866 (Nature communications, 2014).)
